Laboratory results published in paper PMC4211926 (Journal of molecular biology, 2013).
Where two headings read alike, the source gives them in different places.

Tests used:
[1] = target: T1, His-tagged SIRT1 catalytic domain (His-tagged SIRT1^CAT) (human, UniProt Q96EB6 234-510); experiment: pull-down
T1 sequence (looked up): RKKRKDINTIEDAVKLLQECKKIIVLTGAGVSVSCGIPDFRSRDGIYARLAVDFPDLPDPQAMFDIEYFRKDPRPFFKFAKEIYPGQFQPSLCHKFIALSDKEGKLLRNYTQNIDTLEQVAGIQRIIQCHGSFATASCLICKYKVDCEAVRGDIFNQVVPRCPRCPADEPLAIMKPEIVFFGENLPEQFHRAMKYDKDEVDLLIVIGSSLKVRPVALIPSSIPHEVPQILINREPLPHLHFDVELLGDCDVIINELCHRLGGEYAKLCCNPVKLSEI

[2] = target: T2, SIRT1 catalytic domain (SIRT1^CAT), residues 234-510 (human, UniProt Q96EB6 234-510); experiment: SEC
T2 sequence (looked up): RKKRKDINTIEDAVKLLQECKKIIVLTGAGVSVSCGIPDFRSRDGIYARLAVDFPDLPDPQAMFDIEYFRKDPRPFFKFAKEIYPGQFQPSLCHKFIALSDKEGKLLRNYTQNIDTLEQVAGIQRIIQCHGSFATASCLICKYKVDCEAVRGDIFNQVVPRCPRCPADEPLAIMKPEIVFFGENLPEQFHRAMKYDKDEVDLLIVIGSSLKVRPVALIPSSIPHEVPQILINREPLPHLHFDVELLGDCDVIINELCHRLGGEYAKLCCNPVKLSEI

SIRT1^CAT Q345A = target: T3, SIRT1^CAT Q345A (human, UniProt Q96EB6 234-510, Q345A); experiment: SEC
T3 sequence (looked up): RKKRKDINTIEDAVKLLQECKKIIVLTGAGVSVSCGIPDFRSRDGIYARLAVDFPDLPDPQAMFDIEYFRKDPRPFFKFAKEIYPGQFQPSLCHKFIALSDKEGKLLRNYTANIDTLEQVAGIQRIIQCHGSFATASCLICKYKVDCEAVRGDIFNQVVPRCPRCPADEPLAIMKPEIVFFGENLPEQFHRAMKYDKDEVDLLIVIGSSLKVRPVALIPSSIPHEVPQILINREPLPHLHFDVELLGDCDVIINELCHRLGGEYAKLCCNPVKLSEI

SIRT1^CAT R276A = target: T4, SIRT1^CAT R276A (human, UniProt Q96EB6 234-510, R276A); experiment: SEC
T4 sequence (looked up): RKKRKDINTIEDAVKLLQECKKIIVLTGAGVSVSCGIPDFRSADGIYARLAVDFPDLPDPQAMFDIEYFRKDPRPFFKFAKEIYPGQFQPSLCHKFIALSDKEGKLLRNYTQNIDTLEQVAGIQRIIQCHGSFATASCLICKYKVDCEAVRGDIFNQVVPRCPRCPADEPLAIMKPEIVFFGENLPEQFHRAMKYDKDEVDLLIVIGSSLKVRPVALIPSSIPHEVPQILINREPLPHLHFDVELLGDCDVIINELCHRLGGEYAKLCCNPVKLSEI

SIRT1^CAT I347A = target: T5, SIRT1^CAT I347A (human, UniProt Q96EB6 234-510, I347A); experiment: SEC
T5 sequence (looked up): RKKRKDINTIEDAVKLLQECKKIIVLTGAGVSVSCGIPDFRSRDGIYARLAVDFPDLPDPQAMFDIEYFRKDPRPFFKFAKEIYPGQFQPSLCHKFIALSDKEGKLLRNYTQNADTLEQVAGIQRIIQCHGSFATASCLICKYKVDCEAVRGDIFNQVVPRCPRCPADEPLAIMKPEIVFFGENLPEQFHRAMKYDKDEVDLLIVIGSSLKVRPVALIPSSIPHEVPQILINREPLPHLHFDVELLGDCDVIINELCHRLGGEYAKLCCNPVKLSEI

SIRT1^CAT H363A = target: T6, SIRT1^CAT H363A (human, UniProt Q96EB6 234-510, H363A); experiment: SEC
T6 sequence (looked up): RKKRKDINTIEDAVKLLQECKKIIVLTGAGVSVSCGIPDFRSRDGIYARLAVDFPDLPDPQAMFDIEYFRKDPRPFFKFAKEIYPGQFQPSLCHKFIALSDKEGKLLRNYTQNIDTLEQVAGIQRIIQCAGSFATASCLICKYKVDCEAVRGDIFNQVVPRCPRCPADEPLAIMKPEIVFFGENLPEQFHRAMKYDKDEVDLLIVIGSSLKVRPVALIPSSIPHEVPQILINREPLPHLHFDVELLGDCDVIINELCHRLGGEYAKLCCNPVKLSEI

SIRT1^CAT S265A = target: T7, SIRT1^CAT S265A (human, UniProt Q96EB6 234-510, S265A); experiment: SEC
T7 sequence (looked up): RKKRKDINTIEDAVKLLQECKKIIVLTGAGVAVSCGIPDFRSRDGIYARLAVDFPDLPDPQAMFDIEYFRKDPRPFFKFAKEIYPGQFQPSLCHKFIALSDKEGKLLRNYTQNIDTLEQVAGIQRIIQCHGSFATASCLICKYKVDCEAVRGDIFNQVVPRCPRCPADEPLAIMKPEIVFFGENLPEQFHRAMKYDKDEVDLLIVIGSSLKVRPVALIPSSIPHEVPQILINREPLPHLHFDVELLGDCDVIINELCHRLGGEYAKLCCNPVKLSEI

SIRT1^CAT F414A = target: T8, SIRT1^CAT F414A (human, UniProt Q96EB6 234-510, F414A); experiment: SEC
T8 sequence (looked up): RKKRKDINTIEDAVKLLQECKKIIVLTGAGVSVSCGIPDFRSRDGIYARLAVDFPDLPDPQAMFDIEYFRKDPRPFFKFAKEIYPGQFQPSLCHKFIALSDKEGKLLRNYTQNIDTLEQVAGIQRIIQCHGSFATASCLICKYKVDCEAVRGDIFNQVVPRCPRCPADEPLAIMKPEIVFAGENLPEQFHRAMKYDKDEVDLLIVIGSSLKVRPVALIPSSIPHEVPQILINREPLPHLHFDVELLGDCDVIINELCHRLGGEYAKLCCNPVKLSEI

SIRT1^CAT D481A = target: T9, SIRT1^CAT D481A (human, UniProt Q96EB6 234-510, D481A); experiment: SEC
T9 sequence (looked up): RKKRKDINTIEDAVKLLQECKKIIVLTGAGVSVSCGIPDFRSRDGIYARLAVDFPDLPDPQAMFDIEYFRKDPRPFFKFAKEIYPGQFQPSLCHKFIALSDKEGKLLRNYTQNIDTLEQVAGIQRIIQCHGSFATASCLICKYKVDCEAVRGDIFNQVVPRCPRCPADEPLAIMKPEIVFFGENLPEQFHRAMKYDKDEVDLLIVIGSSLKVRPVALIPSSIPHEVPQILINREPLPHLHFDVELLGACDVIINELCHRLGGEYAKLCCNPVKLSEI

SIRT1^CAT R466A = target: T10, SIRT1^CAT R466A (human, UniProt Q96EB6 234-510, R466A); experiment: SEC
T10 sequence (looked up): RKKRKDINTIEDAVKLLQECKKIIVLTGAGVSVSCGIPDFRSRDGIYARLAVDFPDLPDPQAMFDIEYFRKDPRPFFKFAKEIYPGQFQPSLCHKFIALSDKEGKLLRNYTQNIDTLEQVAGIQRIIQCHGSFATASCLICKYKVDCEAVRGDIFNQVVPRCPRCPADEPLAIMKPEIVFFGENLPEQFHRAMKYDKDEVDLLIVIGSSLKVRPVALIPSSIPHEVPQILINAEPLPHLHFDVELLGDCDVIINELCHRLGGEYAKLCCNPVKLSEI

[3] = target: T2, SIRT1 catalytic domain (SIRT1^CAT), …; experiment: SEC; remark: listed apart in the source
[4] = target: T2, SIRT1 catalytic domain (SIRT1^CAT), …; experiment: SEC; remark: listed apart in the source

Measured: binding result

QYLFLPPNRYIFHGAEVYSDSEDDV (domain or fragment, human, UniProt Q96EB6 641-665, looked up) [GST-tagged C-terminal regulatory segment of SIRT1 (GST-CTR)]
binds: [1]

QYLFLPPNRYIFHGAEVYSDSEDDV (domain or fragment, human, UniProt Q96EB6 641-665, looked up) [C-terminal regulatory segment of SIRT1 (CTR), residues 641-665]
not listed: [1] | [3] | [4]
binds: all other assays above

QYLFLPPNRYIFHGAEVYSDSEDDV (domain or fragment, human, UniProt Q96EB6 641-665, looked up) [SUMO-tagged C-terminal regulatory segment of SIRT1 (SUMO-CTR), residues 641-665]
binds: [3] | [1]

QYLFLPPNRYIFHGAAVYSDSEDDV (domain or fragment, human, UniProt Q96EB6 641-665, looked up) [CTR E656A]
binds: [4]
